Test results from US20040058368A1 (PENN STATE RESEARCH FOUNDATION, published 2004).

T1: wild type Gal3p (Saccharomyces cerevisiae (yeast), UniProt P13045 1-520)
T1 sequence (looked up): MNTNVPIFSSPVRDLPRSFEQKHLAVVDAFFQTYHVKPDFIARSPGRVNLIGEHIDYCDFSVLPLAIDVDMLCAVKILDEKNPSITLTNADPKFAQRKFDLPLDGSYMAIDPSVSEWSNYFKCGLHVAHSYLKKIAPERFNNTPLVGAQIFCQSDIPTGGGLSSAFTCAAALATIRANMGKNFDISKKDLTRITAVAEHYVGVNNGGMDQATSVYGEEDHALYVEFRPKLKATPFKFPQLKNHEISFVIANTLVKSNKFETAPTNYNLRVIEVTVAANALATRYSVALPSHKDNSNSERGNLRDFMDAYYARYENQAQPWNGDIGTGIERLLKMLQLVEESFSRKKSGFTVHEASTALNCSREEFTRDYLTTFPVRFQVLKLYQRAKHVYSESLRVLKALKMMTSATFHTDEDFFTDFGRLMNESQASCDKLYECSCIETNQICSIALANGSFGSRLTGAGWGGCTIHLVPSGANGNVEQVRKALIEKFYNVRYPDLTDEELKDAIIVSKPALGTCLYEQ

T2: Gal80-TBP (Saccharomyces cerevisiae (yeast), UniProt P04387 1-435; P13393 1-240, limits assumed)
T2 construct: The junction and any tags are not described
T2 sequence (looked up): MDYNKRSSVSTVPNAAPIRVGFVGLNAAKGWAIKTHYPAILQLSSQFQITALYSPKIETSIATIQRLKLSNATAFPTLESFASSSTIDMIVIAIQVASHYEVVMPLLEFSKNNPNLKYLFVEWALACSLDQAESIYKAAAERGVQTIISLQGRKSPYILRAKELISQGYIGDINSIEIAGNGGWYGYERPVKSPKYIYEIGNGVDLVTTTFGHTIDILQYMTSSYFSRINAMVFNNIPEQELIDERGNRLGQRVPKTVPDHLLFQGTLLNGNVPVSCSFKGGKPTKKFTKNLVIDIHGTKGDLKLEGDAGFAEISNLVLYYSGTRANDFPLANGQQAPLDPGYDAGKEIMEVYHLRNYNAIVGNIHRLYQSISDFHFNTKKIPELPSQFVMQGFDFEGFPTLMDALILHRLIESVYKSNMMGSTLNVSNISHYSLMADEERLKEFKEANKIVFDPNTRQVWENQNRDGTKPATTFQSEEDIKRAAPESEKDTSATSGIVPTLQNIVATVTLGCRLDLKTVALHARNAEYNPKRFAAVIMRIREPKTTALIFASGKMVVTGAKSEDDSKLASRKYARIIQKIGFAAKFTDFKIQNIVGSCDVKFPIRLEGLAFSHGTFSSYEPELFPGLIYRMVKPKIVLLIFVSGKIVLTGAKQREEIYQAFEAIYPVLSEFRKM

B1: Gal80p (other, Saccharomyces cerevisiae (yeast), UniProt P04387 1-435, looked up)
chain: MDYNKRSSVSTVPNAAPIRVGFVGLNAAKGWAIKTHYPAILQLSSQFQITALYSPKIETSIATIQRLKLSNATAFPTLESFASSSTIDMIVIAIQVASHYEVVMPLLEFSKNNPNLKYLFVEWALACSLDQAESIYKAAAERGVQTIISLQGRKSPYILRAKELISQGYIGDINSIEIAGNGGWYGYERPVKSPKYIYEIGNGVDLVTTTFGHTIDILQYMTSSYFSRINAMVFNNIPEQELIDERGNRLGQRVPKTVPDHLLFQGTLLNGNVPVSCSFKGGKPTKKFTKNLVIDIHGTKGDLKLEGDAGFAEISNLVLYYSGTRANDFPLANGQQAPLDPGYDAGKEIMEVYHLRNYNAIVGNIHRLYQSISDFHFNTKKIPELPSQFVMQGFDFEGFPTLMDALILHRLIESVYKSNMMGSTLNVSNISHYSL
notes: Endogenous yeast protein, inside the cells; also called Gal80 protein
B2: Membrane targeted transcriptional activation domain of Gal4p (Myr-Gal4AD) (other, Saccharomyces cerevisiae (yeast))
chain: MGCTVSTQTIGDESDPPLTPSALFGGANFNQSGNIADSSLSFTFTNSSNGPNLITTQTNSQALSQPIASSNVHDNFMNNEITASKIDDGNNSKPLSPGWTDQTAYNAFGITTGMFNTTTMDDVYNYLFDDEDTPPNPKKE
modifications: N-myristoylation signal at the N terminus
notes: range 758-881; also called membrane-localized Gal4AD

Columns and labels:
Gal4p = molecular target: T3, Gal4p (Saccharomyces cerevisiae (yeast), UniProt P04386 1-881); experiment: formaldehyde cross-linking and chromatin immunoprecipitation in yeast, un-induced against galactose-induced
T3 construct: Endogenous protein of wild type Sc723 cells, cross-linked in vivo
Protocol: Fold enrichments are indicated (enrichment). […] FIG. 3C illustrates quantitation of promoter occupancy by Gal4p, Gal80p and Gal3p in un-induced and induced cells. Values are means (±standard deviation) of at least five experiments carried out with two sets of independently prepared chromatin samples.
Chromatin immunoprecipitations were performed as described by Braunstein et al., 1993, Genes Dev. 7: 592-604 and Kuras et al. 1999, Nature 399: 609-613. Briefly, wild type Sc723 cells (Blank et al., 1997, Mol. Cell. Biol. 17: 2566-2575) were grown to early exponential growth phase (as measured by absorbance at 600 nm˜0.4) in 250 mL yeast extract-peptone medium containing 2% glycerol, 3% lactic acid, and 0.05% glucose (-galactose, un-induced). For galactose-induced cultures, galactose was added to the un-induced cultures to a final concentration of 2% and the cultures were incubated for an additional 20 minutes. Formaldehyde was added to a final concentration of 1%, the cultures were incubated for 20 minutes at room temperature, and glycine was added to a final concentration of 300 mM. All the following steps were carried out at […]. Cells were washed twice with TBS (20 mM Tris-HCl, 150 mM NaCl, pH 8.0), resuspended in 1 mL lysis buffer (50 mM Tris-HCl pH 8.0, 10 mM EDTA, 1% SDS, 1 mM PMSF), and disrupted by vortexing with glass beads. […]

wild type Gal3p = molecular target: T1, wild type Gal3p; experiment: cell-based or functional assay
Gal80p = molecular target: B1; experiment: UASGAL-HIS3 reporter growth assay in yeast without galactose
From the text: FIG. 6. (Yeast cells) Membrane targeted transcriptional activation domain of Gal4p (Gal4AD; amino acid 758-881) activates HIS3 reporter gene expression. A yeast strain harboring a UASGAL-HIS3 reporter was transformed with Myr-Gal4AD. […] Transformed cells were spotted on synthetic medium plates lacking histidine, tryptophan and uracil and containing 3% glycerol/2% lactic acid as carbon source.

Gal80-TBP = molecular target: T2, Gal80-TBP; experiment: 80-Trap HIS3 reporter growth assay in yeast
From the text: FIG. 5. (Yeast cells) A membrane-targeted transcription factor activates GAL gene expression through interaction with Gal80-TBP. Galactose-independent HIS3 reporter (expression as a result of Gal80-TBP and Myr-TAF145 interaction; lane 1). Lane 2 illustrates the positive control: interaction between two proteins known to interact: Fpr1 (in fusion with Gal80) and Hom3 (fused to the Myr sequence and CFP). Lane 3 is the negative control with Gal80-TBP tested against just the Myr sequence. The nutrient agar plate used here contained 3% glycerol/2% lactic acid as carbon source and lacked histidine, tryptophan and uracil.

**Q.** Does B1 bind (Gal4p)?
**A.** binds

**Q.** What about the “MEL1 gene expression level” value (wild type Gal3p) of the same binder?
**A.** 2 fold reduction

**Q.** Does B2 bind (Gal80p)?
**A.** binds

**Q.** Does MGCTVSTQTIGDESDP (N-myristoylation signal) [Myr sequence] bind (Gal80-TBP)?
**A.** no binding
